Assay results reported in the DeepSol protein solubility set.

Assay: soluble on expression in E. coli; label from the status in PepcDB or PDB records

Row | Sequence | soluble on expression in E. coli
1 | MVVKSLVYGIYPRSERLRKAYNRWERGLVGNEEIRRTISEEKDRFYEYVKSVGISEFTDPLFNWHDIFRPIALSVSGVTLGPLKRYLETNTFYREPEISGHITLQRKLDTFDLLEENPPLPLFALAKGSSIFLPTPSSFYKMSSVKANIGAEELYKDLVNVYSDIIDIFKPRSLVLYEVFPYNGDNLSYLESLNQKISVHLLTKGKISEKNFNGIKHKFESIISDDHPEFLKNYAKYYGFKIIDVNKTKVEDPNADYGIENYEDAIVTSNDYFDFLPREIADIKVEVLGKVGEAAALEHHHHHH | not soluble
2 | MVVSYSDSTPFGERISDSLKETQKLHTMQLNLGKVCNLACRHCHVEAGPNRREQMSQEVMKKALELFVRHGFETLDITGGAPEMNPHFEWLIHEGSKVASRLIVRTNLVILKESPWEHLAEFYAKHKVELVASLPEVSEEEVDRVRGRGVYGDSIEVIKRLNALGYGKNPDLKLDFVYNPSGPFLPPRVMELERLYKEQLFEKEEIFFHRLLSMNNIPIGRFRDSLERSGELLEYETLLRTHFNPSATPHLMCRSQISVSYEGRIYDCDFNQMLSLEAQGAKSLEEMLIQKSLKRRVVFGEHCYACTAGLGSSCQGVIAPEPL | not soluble
3 | MVVVPHIDRQFLKDVEAVFTARARVNLPVPNPGLGTWVDRTTDTWFRFNHQLSVAIADILQRNFHYAWLTYQMILVVFKARWFFSSRHTLTVWTQFNLVARTLYRDDNSLE | not soluble
4 | MVWQREKLLQVNEIGYRDIDAGVPMQRDTLFRIASMTKPVTVAAAMSLVDEGKLALRDPITRWAPELCKVAVLDDAAGPLDRTHPARRAILIEDLLTHTSGLAYGFSVSGPISRAYQRLPFGQGPDVWLAALATLPLVHQPGDRVTYSHAIDVLGVIVSRIEDAPLYQIIDERVLGPAGMTDTGFYVSADAQRRAATMYRLDEQDRLRHDVMGPPHVTPPSFCNAGGGLWSTADDYLRFVRMLLGDGTVDGVRVLSPESVRLMRTDRLTDEQKRHSFLGAPFWVGRGFGLNLSVVTDPAKSRPLFGPGGLGTFSWPGAYGTWWQADPSADLILLYLIQHCPDLSVDAAAAVAGNPSLAKLRTAQPKFVRRTYRALGL | not soluble
5 | MVYLYKKGVGMNEQSQAKSPEALRAMVAGTLANFQHPTLKHNLTTLKALHHVAWMDDTLHVELVMPFVWHSAFEELKEQCSAELLRITGAKAIDWKLSHNIATLKRVKNQPGINGVKNIIAVSSGKGGVGKSSTAVNLALALAAEGAKVGILDADIYGPSIPTMLGAENQRPTSPDGTHMAPIMSHGLATNSIGYLVTDDNAMVWRGPMASKALMQMLQETLWPDLDYLVLDMPPGTGDIQLTLAQNIPVTGAVVVTTPQDIALIDAKKGIVMFEKVEVPVLGIVENMSVHICSNCGHHEPIFGTGGAEKLAEKYHTQLLGQMPLHISLREDLDKGTPTVISRPESEFTAIYRQLADRVAAQLYWQGEVIPGEISFRAVLEHHHHHH | not soluble
6 | MVYRKVTISTKVFENTNAIVAWVSGRPVLLSKYEGKYYAMDAVCGHMGCAILDKVEGKEAVCPAHRARYDVTTGKKTADAVIRPEVKCEYNEASDTLKVYPVRENNGFLEVDMP | not soluble
7 | MWDKRELTDLAIISAIGIDRTNDSNYVLHLQIINPGNVAGGLQGGGAGDRPPVSVYSIEGNNITEALRKASMKVSRRLYFAHTNLVVINEKLAKEEGLDFVLDNLDRDTEFRTTATFVVAHKTKAENIVKILTPIDKIPSNKVNKTLDFTEAQYGRVVKINIQDVLKTLAANTMAPVIPGYMMIGDDKKGVSMENTQATDPKAILQADGLAVFDKAGYLKYWLEDDESVGAVWLMNKIQHTFINADWGKTKDAVSLQVTHQDTKLVPKMRNGRPYIHVKVSVEGIIDAVKYPFQLSDPKVLAAIEKALNKELEKEISHTVKKIKKNKIDFIGFGDTIYRKYPEQWEKMKDTWDKEYLPELPIDVKAETYIRRTGLRNNPIKHQFKDDLEHHHHHH | not soluble
8 | MWITQEITPYLRKEYTIEAKLLDVRSEHNILEIFKSKDFGEIAMLNRQLLFKNFLHIESELLAHMGGCTKKELKEVLIVDGFDLELAHQLFKYDTHIDFVQADEKILDSFISFFPHFHEVKNNKNFTHAKQLLDLDIKKYDLIFCLQEPDIHRIDGLKRMLKEDGVFISVAKHPLLEHVSMQNALKNMGGVFSVAMPFVAPLRILSNKGYIYASFKTHPLKDLMTPKIEALTSVRYYNEDIHRAAFALPKNLQEVFKDNIKS | soluble
9 | MWKNGAMRGCNKETGEFLGPSRSQQRRTALEVLVLSEKLAALTPAQLAKLPIPERLLPHITETKRITSHIARKRQLAFLAKQMRREDDTTLEAIREKLNASGIQAQREVATLHRTEQWRKRLLEEGDSALTELLNQYPQADCGKLRQLLRNSKTEQARNKAPQAFRELYQVLHGLIITQNSDNQHQTPQ | soluble
10 | MWKRLCAGLSCRKFINQVTMTSVNKNRKSRDENEMAKYNEKELADTSKFLSFVLRHKPEAIGIVLDREGWADIDKLILCAQKAGKRLTRALLDTVVATSDKKRFSYSSDGRCIRAVQGHSTSQVAISFAEKTPPQFLYHGTASRFLDEIKKQGLIAGERHYVHLSADEATARKVGARHGSPVILTVKAQEMAKRGLPFWQAENGVWLTSTVAVEFLEWLEHHHHHH | not soluble
11 | MWLEKFKNKNKETKYRYYEKYKDPLTAKWRRVSVVLNKNGKQSQKEAQRLLNERIEAKLNDKTPTTLKSLTFHVACDEWFQSYIKTSGSKRTTIKTKLSKLNTLKKFVDEDILINKITLSYAQQVFDEMDNKGYVYQVNKDALSIFKNVFEYTRRIYKLQDLEFLKDITLNKRIKSYDEVKAKRNKYLELNEIQSIIKDINTKAQKMHSGIHKRFYLFVALMTEFQALNGMRIGEMLAIQNEDIDFDNKSLNINGTIHWFHDESGGFGVKDTTKTESSYRTIGLSSRSCEILKKAILENKKDSKWNDGYLNRNFVFTNHKGNPMQTERFNKILREAAKDVGIDKEVSSHILRHSHISLLSQQGVSLKAIMDRVGHSDHRTTLSIYSHVTEQMDKDMMNKLEQVKLG | not soluble
12 | MWPPQGVPMSTPGSSAGHMPLGAGAASFPGQMNGPPQHPGMQYSGQMQQLPYGQMEGNHAMYDQRIMGQRAAGRPGMMPDYPQMPMGQTPGNTMMRMPVQYPSGPSQMAGHPHMQQMQYGHMMRAPPVSVYGQMNNAQQYAVTAHPNPVPQPYYHPEVRQLYETTAGYIVDRELLAEGHVTPGSNGVEAMLTHDASDFLKVSPQTDVLFSIWPVTKSNDPNIQYEVYINQKSVMNSHMQVKSIFIKDFLISGMNSIHIVYNGPQQMYKYACEFVTRKSVIELRKILIQKRVIEGQQLATQQKQQYMQMANKRQAGFYPVSLNCVLSKKRMFTPAKHHECKKIFDLAQLINANKGMTRYFCQTCNAYFKFEDITADYFLLNFLQSIPAGVNDLIVEKTGVVRSGDVEDVKPKRGKKKTDNDANGNGIKRIKSEIIVKQETFTDMHGRNVPFSPMPMPGSVPPDWTRLQSPSFSMQSPNKVQLGPATPATPGMVFQNPASAGSMLNMSSPRQTMIPGMHPMMPPHDVTMRSGSAPYTPESVKNDKNDELLMHIEGLYVCDVPILENEQLTVRYMDGTKDLCFEDSMVYEFAESPKHQQQIDGPPQTLMAPGSTASSSGSTFTPPFDDIHLGNRPSH | not soluble
13 | MWQPATERLQVTYLGKVSTTGMQFLSGCTEKPVIELWKKHTLAREDVFPANALLEIRPFQVWLHHLDHKGEATVHMDTFQVARIAYCTADHNVSPNIFAWVYREINDDLSYQMDCHAVECESKLEAKKLAHAMMEAFRKTFHSMKSDGRIHSNSSSEEVSQELESDDG | soluble
14 | MWRAKKPTLERRSTDGRRSSIVDWINGLSDNNNYKSDHWVEKHDEGCERMTRNGSVCAVEESEPDVPTQHREVLLTKLKIEIKNIMAEHGAKKYLNLNSPYVTSLCIAVDACIMDGLRRRLLTLFNSPSSMSLLQIIAKSNGPAQQVLDQTREIEELRTSAIPVHLIWIREALYLKSLSTIINHFIDSKSVRRYYDNSALLLDPVKGRLVATLMMAPCMVTYRRMSNRIEQEATAEELVEGATRGSTSTVPSRPPLSKIKKIHFLDNPSSYMSLQKFYDGNLSLKWVPNQLMHASSQPSSGHSNNGEFTNIWKNTINIEMQDIIYIHLHQKDEISPTCLTFVNCEGVQSAPFQLPAGQHSIAFLSSLETGLAPLLRLDPPLWVGTTKEKILPRLRKRSTAVANPAMLDYVFRLVRTSGVEPAPEDIEDPLAPTSHSPPIHDNCVSLPNSPYIVDNVDSIVNFQIGTACQSMRNQIMARAFYGWLTYVRHLRTIRTHLLHLVDTKTLICDDDCDPVDEKFWKQARAEPTEENEKEFLKRVYWRGIEGINTKEVRRMAWPYLLGLFEWNESPESRLEQFTSQYWQDIEEWRVLEAEVRRRDEEAFRAARARKAASPVREESCDVFEDPNEPTCSQHYDRENLITLFRANLHRIDKDVERCDRNLMFFSNKDNLESLRRVMYTYVRRNLEEGYTQGMCDLLAPLLVTFEDEALTLECFSLLMLRQRGKFPQRPGMSKCLLNLRSLIQVVDPQIYALISDIDYAQALSFAFRWFLLDFKRELSYECTYKVWEVIWAAQRLRITDDFAIFFGLATITNYHDVLITNNFDYTDMIKFFNEMAERHDCSRLLSSARTHVKCLQNLVQHLK | soluble
15 | MWRRSLTESHSNELRLELTSRIVSAYLSRNVIAPSELPHLIQQTYGSLGKTSEPTKTPATVEEQRPAVPIKKSVTDDFIVCLEDGKSFKSLKRHLMAKYALTPEQYREKWKLPADYPMVAPNYARKRSELARATGLGKKSAANLSPSLQAVRSA | not soluble
16 | MWYHRLSHLHSRLQDLLKGGVIYPALPQPNFKSLLPLAVHWHHTASKSLTCAWQQHEDHFELKYANTVMRFDYVWLRDHCRSASCYNSKTHQRSLDTASVDLCIKPKTIRLDETTLFFTWPDGHVTKYDLNWLVKNSYEGQKQKVIQPRILWNAEIYQQAQVPSVDCQSFLETNEGLKKFLQNFLLYGIAFVENVPPTQEHTEKLAERISLIRETIYGRMWYFTSDFSRGDTAYTKLALDRHTDTTYFQEPCGIQVFHCLKHEGTGGRTLLVDGFYAAEQVLQKAPEEFELLSKVPLKHEYIEDVGECHNHMIGIGPVLNIYPWNKELYLIRLFKEKQNTVNRQWNSSLQCDIPERILTYRHFVSGTSIEHRGSLI | not soluble
17 | MYCDHFGFSEHPFALTPNPAFLFLSSRHQEAFAHLLYGIDTRAGFIELSGEVGTGKTTVIRTFLNQLDPETHRTALVFNPTVSPLGLLQGIIREFGLPGTSTEKSELLETLNRFLLDENRAGHTVVLVIDEAQNLSPEVLEQIRLISNLETERDKLIQIVLVGQPELRHLLARQELRQLDQRITVRYHLEPMGLDDTKNYIRHRIRIAAGGREPVIFSAGAVKKIFGFSGGLPRLINAACDRALLLAYTTEAREVSPAMAAAAIADVATEARPPSPSRRFAVAAALILVAALGAGTFAVTRKGGESLPSASPPPTEPAASGEQPLKRTAALAGLAAVPEKDNLSAAVNTILRSWQAPPVASSPSPADLRSLARERGLTVTELSGTLNDLARLDTPALLHITLPQGGKRLVALTSLDKGHIGIDPPIAGHSTLTGGELSTLWSGRASVIWKNFHGIPSRLKPGGRSKAVGQLQELLKGAGYYAGRISGTYDTVTQEAIRSFQTAEGLDADGRTGEKTLLLLYRRAGGFFPPGLTQGKTAARTEAGDRSRGKVAQTRSNGEQSRLEHHHHHH | not soluble
18 | MYCKPHRPGNTPQVPDNKGKCTRLVDYLSKESQVERPYYDNFFSQQKDYVIPLTVKNHIDNNHRTLKSNDDKFYMLSINPSGDEQRHLIERVTGRKVGEFSELTPGEQESVLAQMKKFTRECMDEYARNFYREKIKSGDDLVWYGRVETERHYKNDDPEVKAGRVKAGDKKPGLQLHVHVIVSRMDRTQTVSLSPLSKSRGNRQILEGREVVVGFDRSQWSSRCASRFNQSYDYFPNYYSRDESLRKYSENWQAKNELKNEAVSKLKQEVLKGELKEERRLYANTFRIYRFVVNPRKAIIQELKRLGTDLLSGRDL | not soluble
